Laboratory results taken from patent publication US6723321B2 (priority 1998, dated 2004).
Read-outs that look alike come from different tables or passages of the source.

Experiments:
RhlI [1] = target: T1, RhlI (Pseudomonas aeruginosa, UniProt P54291); assay: radioactive in vitro assay for RhlI activity (C14-labeled SAM); type: biochemical; conditions: for Activity in radioactive assay: potential acyl group substrates, 61 μM SAM as co-substrate
RhlI [2] = target: T1, RhlI; type: biochemical; conditions: acyl substrate varied, SAM held at 95 μM; for Km: read-out: Apparent Km
RhlI [3] = target: T1, RhlI; type: biochemical
[4] = test system: CCCC(=O)SCCNC(=O)CCNC(=O)[C@H](O)C(C)(C)COP(=O)(O)OP(=O)(O)OC[C@H]1O[C@@H](n2cnc3c(N)ncnc32)[C@H](O)[C@@H]1OP(=O)(O)O; assay: purified protein, by the assay type; conditions: other: acyl substrate varied, SAM held at 95 μM
RhlI [5] = target: T1, RhlI; type: biochemical; conditions: 61 μM SAM as co-substrate; tested in the R. solanacearum bioassay
[6] = potential acyl group substrates, 61 μM SAM as co-substrate

T1 sequence (P54291 whole entry, looked up): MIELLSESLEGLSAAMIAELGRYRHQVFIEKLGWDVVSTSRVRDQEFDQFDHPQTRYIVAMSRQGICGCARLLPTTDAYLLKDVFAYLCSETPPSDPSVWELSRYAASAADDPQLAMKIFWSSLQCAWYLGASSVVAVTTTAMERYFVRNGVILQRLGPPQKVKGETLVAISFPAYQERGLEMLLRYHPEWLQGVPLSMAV

Row | Compound | Apparent Vmax (RhlI [2]) | Activity in radioactive assay (RhlI [1]) | Activity in butyryl HSL bioassay (RhlI [3]; [6]) | Km (RhlI [2]) | further results
1 | NC(=O)C1=CN([C@@H]2O[C@H](COP(=O)(O)OP(=O)(O)OC[C@H]3O[C@@H](n4cnc5c(N)ncnc54)[C@H](OP(=O)(O)O)[C@@H]3O)[C@@H](O)[C@H]2O)C=CC1 [NADPH] | – | – | – | – | effect on the reaction rate (RhlI [1]; included with butyryl-ACP and SAM): slightly increase
2 | CCCC(=O)SCCNC(=O)CCNC(=O)[C@H](O)C(C)(C)COP(=O)(O)OP(=O)(O)OC[C@H]1O[C@@H](n2cnc3c(N)ncnc32)[C@H](O)[C@@H]1OP(=O)(O)O [butyryl-CoA] | 2.1 mol of butyryl HSL min^−1 mol^−1 of RhlI | 82 nmoles butyryl HSL formed min^−1 mg^−1 | 38 nmoles butyryl HSL formed min^−1 mg^−1 | – | –
3 | CCCCCC(=O)SCCNC(=O)CCNC(=O)[C@H](O)C(C)(C)COP(=O)(O)OP(=O)(O)OC[C@H]1O[C@@H](n2cnc3c(N)ncnc32)[C@H](O)[C@@H]1OP(=O)(O)O [hexanoyl-CoA] | – | 4 nmoles butyryl HSL formed min^−1 mg^−1 | – | – | –
4 | N[C@@H](CCS)C(=O)O [homocysteine] | – | – | – | – | activity, fold less when compared to reactions containing SAM (RhlI [3]; butyryl HSL bioassay, amino acid substrate): at least 150 fold; Activity in butyryl HSL bioassay (RhlI [3]; potential amino acid substrates, 39 μM butyryl ACP as co-substrate): <2 nmoles butyryl HSL formed min^−1 mg^−1
5 | RhlI (Pseudomonas aeruginosa PAO1) | – | – | – | – | Km [4]: 230 µM
6 | butyryl-ACP: acylated acyl carrier protein with attached butyryl group; acyl substrate of RhlI | – | 650 nmoles butyryl HSL formed min^−1 mg^−1 | 532 nmoles butyryl HSL formed min^−1 mg^−1 | 6 µM | –
7 | hexanoyl-ACP: acylated acyl carrier protein with attached hexanoyl group | 9.6 mol of butyryl HSL min^−1 mol^−1 of RhlI | 263 nmoles butyryl HSL formed min^−1 mg^−1 | 91 nmoles butyryl HSL formed min^−1 mg^−1 | 8 µM | –
8 | octanoyl-ACP: acylated acyl carrier protein with attached octanoyl group | 1.8 mol of butyryl HSL min^−1 mol^−1 of RhlI | 28 nmoles butyryl HSL formed min^−1 mg^−1 | – | 43 µM | Activity in bioassay (R. solanacearum bioassay) (RhlI [5]): not detected as a substrate; Activity in radioactive assay (RhlI [1]; listed as Octanoyl-ACP): demonstrated to be a substrate of RhlI
